The source of these data is publication PMC8548535, “Kinetic and structural roles for the surface in guiding SAS-6 self-assembly to direct centriole architecture” (Nature Communications, 2021).

Data set [1] deals with the molecule itself. Nature of the data set: circular dichroism, concentration series; monomer to dimer; CD signal at 222 nm at varying protein concentrations, 20 °C, 20 mM potassium phosphate pH 8.0, 150 mM NaF, fitted with a two-state association model. A general note: CD spectra are sensitive to the conformation of chiral molecules.
Data set [2] deals with the molecule itself. Nature of the data set: high-speed atomic force microscopy (PORT-HS-AFM); homodimer with homodimer (and higher oligomers, rings) adsorbed on a mica surface; 20 mM Tris-HCl, 150 mM KCl, pH 7.4, 6-10 °C; ~120 nM in solution (~14 nM pre-incubated on mica for ring opening and closing); effective surface constants, Kd from a fit of a coagulation-fragmentation model.

B1: Chlamydomonas reinhardtii SAS-6[NL] (CrSAS-6[NL], amino acids 1-503) (domain or fragment, UniProt A9CQL4 1-503, looked up)
chain: MPLLLDDGDPKAQTGFDLSTATTLFWRPVPVHVKQQDREDVLEELTFRILTGVAKQNHNLRILRIHISSDSDLFFLHTLEVSEEDFQSLKNDQGILVDFASFPGKIISLLEKCILAQPGDSPRFQAVLTIRGGESVFKIVEINDFKQLPHITLAFRPGNDSVVKQFLAFRLSEVKGTCHDLSDDLSRTRDDRDSMVAQLAQCRQQLAQLREQYDKHLLEVQAQAKTQQASAHEERIREKSQLKDQFEKERGEMEGRYRDQIAALNTRLGELDTENRKLREVKYELDTKVSELSHKLGSSEGSNRSLEEETARLRSLNQQLSSSKHELEIQLNEAKAKVLALDEKAQSQGDVIEQQRGRLRDMEAALRQTEQRCADLRDTLASAEGRAKEAQAEVLKGNQAIEKLTNDLRLAKEKTKRKAAIILRQEEELQEREQSLANATRDVGVLGQQAESLRKDVASLHSENDSLRSKLEDSKQQLQSNEQMIRWLNQQVTEAQLHASGAT
notes: SAS-6 of Chlamydomonas reinhardtii, amino acids 1-503: globular N-terminal head domain and the coiled-coil (spokes), without the unstructured C-terminal moiety; Forms a homodimer through its coiled coil (monomer-dimer Kd measured here); source: E. coli BL21(DE3), purified (HisTrap Ni2+-Sepharose, PreScission cleavage, reverse HisTrap, SEC Superdex 200)
B1: the equilibrium dissociation constant (Kd) – broadly, the concentration at which binding is half-saturated – in data set [1] is roughly 20 nM. For the same protein, the stoichiometry N (usually the number of molecules, sites or subunits per partner or assembly) in data set [2] is 7 to 10 homodimers.
